Here are results for 14 molecules from patent US20210253725A1 (BIONTECH, published 2021).

T1: CD134 protein (His-tagged, Sino Biological Inc. 10481-H08H) (human, UniProt P43489 29-216)
T1 construct: bought protein coated on ELISA plates; also called OX40; TNFRSF4; not shown: His tag
T1 sequence (looked up): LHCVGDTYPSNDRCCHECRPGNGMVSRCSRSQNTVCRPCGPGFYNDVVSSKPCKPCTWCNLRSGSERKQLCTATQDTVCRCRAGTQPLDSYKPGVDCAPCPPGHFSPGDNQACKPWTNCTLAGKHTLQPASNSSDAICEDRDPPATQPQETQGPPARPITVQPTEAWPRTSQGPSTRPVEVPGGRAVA

T2: CD134 expressed on the cell surface of HT1080_OX40 cells (human, UniProt P43489 29-277)
T2 construct: whole, on cells; species not restated for the HT1080 transfectant
T2 sequence (looked up): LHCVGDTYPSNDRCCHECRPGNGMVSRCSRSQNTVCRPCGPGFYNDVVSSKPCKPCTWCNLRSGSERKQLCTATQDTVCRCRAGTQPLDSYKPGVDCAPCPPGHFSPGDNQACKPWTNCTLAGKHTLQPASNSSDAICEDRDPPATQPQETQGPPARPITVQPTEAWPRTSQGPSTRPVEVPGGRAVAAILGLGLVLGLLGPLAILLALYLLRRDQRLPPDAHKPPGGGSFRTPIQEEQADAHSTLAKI

B1: P018.S.12.A.E05 (antibody, V domains shown)
VH: QSVEESGGRLVTPGGSLTLTCTASGFDLSSYATSWVRQAPGKGLEWIGIIYGSGSTTYASWVKGQFTISKSSSTTVDLKMTSLTTEDTATYFCARGLVASTDNYNLWGPGTLVTVSS
VL: AAVLTQTPSPVSVAVGGTVTINCQASQSVYNNNYLAWFQQKPGQPPKLLIYLASILASGVPSRFKGSGSGTQFTLTINGVQSDDAATYYCLGDVGGGERVFGGGTEVVVK
notes: V regions on human Ig constant parts; also called AB134_76
B2: P018.S.12.A.C03 (antibody, V domains shown)
VH: QEQLKESGGDLVTPGTPLTLTCTVSGFSLSSYAMAWVRQAPGKGLEYIGFIDTDGSAYYASWAKGRFTISRTSTTVDLKITSPTTEDTATYFCAGDSYGYAGFVYFNLWGPGTLVTVSS
VL: DVVMTQTPASVSEPVGGTVTIKCQASQNIYSSLAWYQQKPGQPPKLLIYDASDLASGVPSRFKGSGSGTQFTLTISDLESDDAATYYCQCSYYGVDYVGGFGGGTEVVVK
notes: V regions on human Ig constant parts; also called AB134_63
B3: P018.S.12.A.G03 (antibody, V domains shown)
VH: QSLEESGGRLVTPGGSLTLTCTLSGIDLSSNAISWVRQAPGKGLEWIGIIFPGDNIYYATWAKGRFTISKTSTTVDLKMTSLRTADTATYFCARYHADDSVDLWGPGTLVTVSS
VL: AYDMTQTPASVSEPVGGTVTIKCQASQSINGWLSWYQQKPGQRPRLLIYRASDLAPGVSSRFKGSGSGTQFTLTISDVESADAATYYCHLGDIYSNIDYVFGGGTEVVVK
notes: V regions on human Ig constant parts; also called AB134_85
B4: P018.S.11.A.B03 (antibody, V domains shown)
VH: QSLEESGGRLVTPGTPLTLTCTVSGFSLSNYAMSWVRQAPGKGLEWIAIISGSGSTNYASWAKGRFTLSKASTTVALKITSPTTEDTATYFCGRGRDDDYAWDLWGQGTLVTVSS
VL: DVVMTQTPASVSEPVGGTVTIKCQASQTISNYLAWYQQKPGQPPKLLIYAASTLASGVSSRFRGSGSGTEFSLTISDLESADAATYYCHCTYYDSSYHGFGGGTEVVVK
notes: V regions on human Ig constant parts; also called AB134_24
B5: P018.S.11.A.B06 (antibody, V domains shown)
VH: QSVEESGGRLVTPGTPLTLTCTASGFSLINYNMGWVRQAPGEGLEWIGTILTDGTVYYSNWAKGQFTISKTSTTVDLEMTSPTNEDTATYFCARDYPSYIAFDLWGPGTLVTVSS
VL: AQVLTQTASSVSAAVGGTVTINCQASQSVYNDDNLAWLQQKPGQPPKLLIYGASSLASGVPSRFSGSGSGTEFTLTISGVQSEDAAIYYCQGGGFSSGWYWAFGGGTEVVVK
notes: V regions on human Ig constant parts; also called AB134_27
B6: P018.S.12.A.A06 (antibody, V domains shown)
VH: QSVEESGGRLVTPGTPLTLTCTVSGFSLSSFAMTWVRQAPGKGLEWIGIISSSGTTYYASWAKGRFTISKTSTTVDLRITSPTTEDTATYFCASHYDDYGDSDALDPWGPGTLVTVSS
VL: AAVMTQTPSPVSAAVGGTVTINCQASEDIYSNLAWFQQKPGQPPKLLIYRASTLASGVPSRFSGSGSGTEFTLTISGLQSDDAATYYCLGVDRHISDRAFGGGTEVVVK
notes: V regions on human Ig constant parts; also called AB134_55
B7: P018.S.12.A.B03 (antibody, V domains shown)
VH: QSLEESGGRLVTPGTPLTLICTVSGIDLSSGAMGWVRQAPGKGLEYIGYIYTGSGTTSYASWVNGRFTISMTSTTVDLKITSPTTEDTATYFCARDAASSYWGHFTLWGQGTLVTVSS
VL: DIVMTQTPASVEAAVGGTVTIKCQASENIYSSLAWYQQKPGQPPKLLIYRTSTLASGVPSRFKGSGSGTQFTLTISDLESDDAATYYCQSYYHNSGGGYDYGFGGGTEVVAK
notes: V regions on human Ig constant parts; also called AB134_58
B8: P018.S.11.A.G05 (antibody, V domains shown)
VH: QSLEESGGDLVKPGASLTLTCAASGFSLNNWVMCWVRQAPGKGLEWIACIDIVGSGSTHYATWAKGRFTMSKASSITVTLQMTSLTAADTATYFCARGVNGDGNLNLWGPGTLVTVSS
VL: DVVMTQTPASVSEPVGGAVTIKCQASETISNYLAWYQQKPGQRPKLLIYGASNLESGVPSRFKGSGSGTEFTLTISDLESADAATYYCQCTYVGDSYTAFGGGTEVVVK
notes: V regions on human Ig constant parts; also called AB134_45
B9: P018.S.12.A.C06 (antibody, V domains shown)
VH: QSVEESGGRLVKPDETLTLICTVSGIDLSINVVGWVRQAPGEGLEWIGDISSHGDTIYATWAKGRFTISKTSTTVDLKMTSLTASDTATYFCARYVGDGYYDLWGPGTLVTVSS
VL: AYDMTQTPASVSAAVGGTVTINCQASQSISNLLAWYQQKPGQRPKLLIYDTSKLASGVPSRFKGSGSGTQFTLTISDLESADAATYYCQQSYSSSNIANLFGGGTEVVVK
notes: V regions on human Ig constant parts; also called AB134_66
B10: P018.S.12.A.B01 (antibody, V domains shown)
VH: QEQLVESGGGLVQPEGSLTLTCKASGFDFSYNSMCWVRQAPGKGLEWITCIYNGDGSTWYASWAKGRFTISKTSSTTVTLQMTSLTAADTATYFCTRDFGLWGPGTLVTVSS
VL: ALVMTQTPSSTSEPVGGTVTINCQASESVANHKQLSWYQQKPGQPPKVLIYYASTLASGVPSRFKGSGSGTQFTLTISDVVSDDAATYYCSGYKSISTDGNAFGGGTEVVVK
notes: V regions on human Ig constant parts; also called AB134_56
B11: P018.S.11.A.E02 (antibody, V domains shown)
VH: QEQLEESGGDLVKPEGSLTLTCTASGFSFNVDYYMCWVRQAPGKGLEWIACIYVGSEGSTYYASWAKGRFTISKTSSTTVTLQMTSLTAADTATYFCARHYAGYAGYNYATDYYFTLWGPGTLVTVSS
VL: DIVMTQTPSSVSAGVGGTVTINCQASQSVTNFLSWYQQKPGQPPKLLIYGASTLASGVPSRFKGSGSGTEFTLTISGMKAEDVATYYCQSGYYSATFGAGTKVEIK
notes: V regions on human Ig constant parts; also called AB134_33
B12: P018.S.12.A.F06 (antibody, V domains shown)
VH: QSLEESGGDLVKPGGTLTLTCKASGIDFNNYYVCWVRQAPGKGLEWVGCIYTGSGSTYYASWAKGRFTITRSSSTTVTLQMTSLTAADTATYFCARPEFYDTYGYAGYGYATPNYFNFWGPGTLVTVSS
VL: AAVLTQTPSPVSAAVGGTVTIKCQASQSVYNNNLLSWYQQKPGQPPKLLMYDASNLASGVPDRFSGSGSGTQFTLTISDLESDDAATYYCLGGYDDDADYNAFGGGTEVVVA
notes: V regions on human Ig constant parts; also called AB134_82
B13: P018.S.04.A.B04 (antibody, V domains shown)
VH: QSLEESGGRLVTPGTPLTLTCTASGIDLNNYAMSWVRQAPGKGLEWIGIISGAGYTYYTTWAKGRFTISKTSTTVDLKITSPTTEDTATYFCARIYDSYGYAYVPYYDMDLWGPGTLVTVSS
VL: AAVLTQTPSPVSTAVGGTVTINCQSSQSVFMNNYLSWYQQKPGQPPKLLIYDASTLASRVPDRFSGSGSGTQFTLTISGVQSDDAAAYYCLGGYDDDSATTFGGGTEVVVE
notes: V regions on human Ig constant parts; also called AB134_6
B14: P018.S.12.A.B06 (antibody, V domains shown)
VH: QEQLEESGGGLVQPEGSLTLTCTASGFSFSYYWMCWVRQAPGKGLEWSACIGTGSGSTYYATWAKGRFTISKTSSTTVTLQMTSLTAADTATYFCARDWGIYSSDAYYMDYFNLWGPGTLVTVSS
VL: AFELTQTPASVEAAVGGTVTIKCQASQSIGSYLAWYQQKPGQPPKPLIYEASKLASGVSSRFKGSGSGTQFTLTISGVESADAATYYCQQGGISTNVQNAFGGGTEVVVK
notes: V regions on human Ig constant parts; also called AB134_60
Further: test concentration or dose not given here.

One test has as its target T1, CD134 protein (His-tagged, Sino …). The test is described as follows: ELISA, coated His-tagged CD134.
B1: the “ELISA [abs. corr.]” value was determined as 1.93 abs. corr.

B2: the “ELISA [abs. corr.]” value stood at 1.96 abs. corr.

Consider B3, for which the “ELISA [abs. corr.]” value was determined as 2.52 abs. corr.

As for B4, the “ELISA [abs. corr.]” value is 2.66 abs. corr.

On to B5, for which the “ELISA [abs. corr.]” value amounted to 2.13 abs. corr.

Regarding B6, the “ELISA [abs. corr.]” value turned out to be 1.61 abs. corr.

B7: the “ELISA [abs. corr.]” value worked out at 1.18 abs. corr.

As for B8, the “ELISA [abs. corr.]” value was 2.36 abs. corr.

As for B9, the “ELISA [abs. corr.]” value was found to be 2.35 abs. corr.

On to B10, for which the “ELISA [abs. corr.]” value was 2.34 abs. corr.

For B11, the “ELISA [abs. corr.]” value turned out to be 2.65 abs. corr.

Regarding B12, the “ELISA [abs. corr.]” value is 1.65 abs. corr.

As to B13, the “ELISA [abs. corr.]” value is 3.21 abs. corr.

With B14, the “ELISA [abs. corr.]” value turned out to be 1.4 abs. corr.

The target in another test is T2, CD134 expressed on the cell surface of …. The test is described as follows: HT1080_OX40 cells, imaging.
On to B1, for which the “Cellular binding assay [RFU]” value was determined as 523 RFU.

As for B2, the “Cellular binding assay [RFU]” value stood at 483 RFU.

As to B3, the “Cellular binding assay [RFU]” value came to 452 RFU.

As to B4, the “Cellular binding assay [RFU]” value was 527 RFU.

As to B5, the “Cellular binding assay [RFU]” value came out at 441 RFU.

In the case of B6, the “Cellular binding assay [RFU]” value is 515 RFU.

B7: the “Cellular binding assay [RFU]” value amounted to 446 RFU.

For B8, the “Cellular binding assay [RFU]” value turned out to be 531 RFU.

Turning to B9, the “Cellular binding assay [RFU]” value worked out at 525 RFU.

As to B10, the “Cellular binding assay [RFU]” value was determined as 607 RFU.

For B11, the “Cellular binding assay [RFU]” value is 525 RFU.

As for B12, the “Cellular binding assay [RFU]” value was determined as 500 RFU.

As to B13, the “Cellular binding assay [RFU]” value is 331 RFU.

Consider B14, for which the “Cellular binding assay [RFU]” value was determined as 451 RFU.

For another test the target is unchanged. The test is described as follows: cell-based or functional assay.
Take B1: the “Functional assay Cross-linked by F(ab′)2 fragment IL-8” value (“Functional assay Cross-linked” below) was 2.11 abs. corr and the “Functional assay IL-8” value came out at 0.132 abs. corr.

As to B2, the “Functional assay Cross-linked” value came out at 2.11 abs. corr and the “Functional assay IL-8” value turned out to be 0.238 abs. corr.

As for B3, the “Functional assay Cross-linked” value was 2.1 abs. corr and the “Functional assay IL-8” value was determined as 0.209 abs. corr.

Consider B4, for which the “Functional assay Cross-linked” value is 2.1 abs. corr and the “Functional assay IL-8” value is -0.075 abs. corr.

With B5, the “Functional assay Cross-linked” value was determined as 2.1 abs. corr and the “Functional assay IL-8” value is 0.403 abs. corr.

Regarding B6, the “Functional assay Cross-linked” value was 2.04 abs. corr and the “Functional assay IL-8” value amounted to 0.062 abs. corr.

B7: the “Functional assay Cross-linked” value was determined as 2.05 abs. corr and the “Functional assay IL-8” value was found to be 1.07 abs. corr.

Turning to B8, the “Functional assay Cross-linked” value is 2.05 abs. corr and the “Functional assay IL-8” value turned out to be 0.031 abs. corr.

As to B9, the “Functional assay Cross-linked” value is 2.1 abs. corr and the “Functional assay IL-8” value was 0.881 abs. corr.

B10: the “Functional assay Cross-linked” value was found to be 2.11 abs. corr and the “Functional assay IL-8” value came to 0.396 abs. corr.

Take B11: the “Functional assay Cross-linked” value came out at 2.04 abs. corr and the “Functional assay IL-8” value was determined as 0.214 abs. corr.

Consider B12, for which the “Functional assay Cross-linked” value is 2.05 abs. corr and the “Functional assay IL-8” value came out at 0.374 abs. corr.

B13: the “Functional assay Cross-linked” value was determined as 2.11 abs. corr and the “Functional assay IL-8” value came to 1.99 abs. corr.

B14: the “Functional assay Cross-linked” value worked out at 2.07 abs. corr and the “Functional assay IL-8” value was determined as 1.84 abs. corr.
